Sequences and labels used below:
B1: MTSP-1 protease domain I41S/ins97aV/C122S/Q192D (enzyme)
chain: VVGGTDADEGEWPWQVSLHALGQGHSCGASLISPNWLVSAAHCYIDDRGFRYSDPTQWTAFLGLHDQSQRSAPGVQERRLKRIISHPFFNDFVTFDYDIALLELEKPAEYSSMVRPISLPDASHVFPAGKAIWVTGWGHTQYGGTGALILQKGEIRVINQTTCENLLPQQITPRMMCVGFLSGGVDSCDGDSGGPLSSVEADGRIFQAGVVSWGDGCAQRNKPGVYTRLPLFRDWIKENTGV
B2: MTSP-1 protease domain I41S/F97G/ins97aA/T98L/C122S/Q192A (enzyme)
chain: VVGGTDADEGEWPWQVSLHALGQGHSCGASLISPNWLVSAAHCYIDDRGFRYSDPTQWTAFLGLHDQSQRSAPGVQERRLKRIISHPFFNDGALFDYDIALLELEKPAEYSSMVRPISLPDASHVFPAGKAIWVTGWGHTQYGGTGALILQKGEIRVINQTTCENLLPQQITPRMMCVGFLSGGVDSCAGDSGGPLSSVEADGRIFQAGVVSWGDGCAQRNKPGVYTRLPLFRDWIKENTGV
B3: MTSP-1 protease domain I41T/F97R/ins97aV/T98L/C122S/Q192S (enzyme)
chain: VVGGTDADEGEWPWQVSLHALGQGHTCGASLISPNWLVSAAHCYIDDRGFRYSDPTQWTAFLGLHDQSQRSAPGVQERRLKRIISHPFFNDRVLFDYDIALLELEKPAEYSSMVRPISLPDASHVFPAGKAIWVTGWGHTQYGGTGALILQKGEIRVINQTTCENLLPQQITPRMMCVGFLSGGVDSCSGDSGGPLSSVEADGRIFQAGVVSWGDGCAQRNKPGVYTRLPLFRDWIKENTGV
B4: MTSP-1 Q38H/I41S/F60eS/Y60gW/D96K/F97G/ins97aV/T98P/F99L/C122S/G151H/Q175L/Q192D (enzyme)
chain: VVGGTDADEGEWPWQVSLHALGHGHSCGASLISPNWLVSAAHCYIDDRGSRWSDPTQWTAFLGLHDQSQRSAPGVQERRLKRIISHPFFNKGVPLDYDIALLELEKPAEYSSMVRPISLPDASHVFPAGKAIWVTGWGHTQYGGTHALILQKGEIRVINQTTCENLLPQLITPRMMCVGFLSGGVDSCDGDSGGPLSSVEADGRIFQAGVVSWGDGCAQRNKPGVYTRLPLFRDWIKENTGV
B5: MTSP-1 protease domain I41S/F97L/F99L/C122S/Q192S (enzyme)
chain: VVGGTDADEGEWPWQVSLHALGQGHSCGASLISPNWLVSAAHCYIDDRGFRYSDPTQWTAFLGLHDQSQRSAPGVQERRLKRIISHPFFNDLTLDYDIALLELEKPAEYSSMVRPISLPDASHVFPAGKAIWVTGWGHTQYGGTGALILQKGEIRVINQTTCENLLPQQITPRMMCVGFLSGGVDSCSGDSGGPLSSVEADGRIFQAGVVSWGDGCAQRNKPGVYTRLPLFRDWIKENTGV
B6: MTSP-1 protease domain I41S/F97D/F99L/C122S/Q192V (enzyme)
chain: VVGGTDADEGEWPWQVSLHALGQGHSCGASLISPNWLVSAAHCYIDDRGFRYSDPTQWTAFLGLHDQSQRSAPGVQERRLKRIISHPFFNDDTLDYDIALLELEKPAEYSSMVRPISLPDASHVFPAGKAIWVTGWGHTQYGGTGALILQKGEIRVINQTTCENLLPQQITPRMMCVGFLSGGVDSCVGDSGGPLSSVEADGRIFQAGVVSWGDGCAQRNKPGVYTRLPLFRDWIKENTGV
B7: MTSP-1 protease domain I41E/F97L/F99L/C122S/Q192A (enzyme)
chain: VVGGTDADEGEWPWQVSLHALGQGHECGASLISPNWLVSAAHCYIDDRGFRYSDPTQWTAFLGLHDQSQRSAPGVQERRLKRIISHPFFNDLTLDYDIALLELEKPAEYSSMVRPISLPDASHVFPAGKAIWVTGWGHTQYGGTGALILQKGEIRVINQTTCENLLPQQITPRMMCVGFLSGGVDSCAGDSGGPLSSVEADGRIFQAGVVSWGDGCAQRNKPGVYTRLPLFRDWIKENTGV
B8: MTSP-1 protease domain I41S/F97V/T98N/F99L/C122S/Q192S (enzyme)
chain: VVGGTDADEGEWPWQVSLHALGQGHSCGASLISPNWLVSAAHCYIDDRGFRYSDPTQWTAFLGLHDQSQRSAPGVQERRLKRIISHPFFNDVNLDYDIALLELEKPAEYSSMVRPISLPDASHVFPAGKAIWVTGWGHTQYGGTGALILQKGEIRVINQTTCENLLPQQITPRMMCVGFLSGGVDSCSGDSGGPLSSVEADGRIFQAGVVSWGDGCAQRNKPGVYTRLPLFRDWIKENTGV

The experiment deals with plasma purified human complement protein C3 (human) (UniProt P01024). Nature of the experiment: cell-based or functional assay.
Sequence of plasma purified human complement protein C3 (human) (P01024 23-667, chain 1 of 2): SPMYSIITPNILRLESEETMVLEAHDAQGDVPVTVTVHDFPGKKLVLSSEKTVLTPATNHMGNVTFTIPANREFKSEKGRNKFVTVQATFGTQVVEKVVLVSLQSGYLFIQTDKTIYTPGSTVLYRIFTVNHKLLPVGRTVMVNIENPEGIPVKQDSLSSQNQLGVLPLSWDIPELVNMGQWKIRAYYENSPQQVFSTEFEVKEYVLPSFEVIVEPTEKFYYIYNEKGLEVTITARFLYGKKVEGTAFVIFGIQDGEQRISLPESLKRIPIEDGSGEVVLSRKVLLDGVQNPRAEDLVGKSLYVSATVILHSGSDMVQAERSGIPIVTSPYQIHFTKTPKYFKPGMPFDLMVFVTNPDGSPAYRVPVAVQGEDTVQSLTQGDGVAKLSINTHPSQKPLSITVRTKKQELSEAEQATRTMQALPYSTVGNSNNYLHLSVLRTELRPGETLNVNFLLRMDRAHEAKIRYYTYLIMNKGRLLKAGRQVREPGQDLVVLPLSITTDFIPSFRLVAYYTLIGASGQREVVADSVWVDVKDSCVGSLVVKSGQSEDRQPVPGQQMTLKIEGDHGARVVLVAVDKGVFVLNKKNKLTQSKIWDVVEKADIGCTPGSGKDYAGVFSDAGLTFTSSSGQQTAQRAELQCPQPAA
Sequence of plasma purified human complement protein C3 (human) (P01024 672-1663, chain 2 of 2): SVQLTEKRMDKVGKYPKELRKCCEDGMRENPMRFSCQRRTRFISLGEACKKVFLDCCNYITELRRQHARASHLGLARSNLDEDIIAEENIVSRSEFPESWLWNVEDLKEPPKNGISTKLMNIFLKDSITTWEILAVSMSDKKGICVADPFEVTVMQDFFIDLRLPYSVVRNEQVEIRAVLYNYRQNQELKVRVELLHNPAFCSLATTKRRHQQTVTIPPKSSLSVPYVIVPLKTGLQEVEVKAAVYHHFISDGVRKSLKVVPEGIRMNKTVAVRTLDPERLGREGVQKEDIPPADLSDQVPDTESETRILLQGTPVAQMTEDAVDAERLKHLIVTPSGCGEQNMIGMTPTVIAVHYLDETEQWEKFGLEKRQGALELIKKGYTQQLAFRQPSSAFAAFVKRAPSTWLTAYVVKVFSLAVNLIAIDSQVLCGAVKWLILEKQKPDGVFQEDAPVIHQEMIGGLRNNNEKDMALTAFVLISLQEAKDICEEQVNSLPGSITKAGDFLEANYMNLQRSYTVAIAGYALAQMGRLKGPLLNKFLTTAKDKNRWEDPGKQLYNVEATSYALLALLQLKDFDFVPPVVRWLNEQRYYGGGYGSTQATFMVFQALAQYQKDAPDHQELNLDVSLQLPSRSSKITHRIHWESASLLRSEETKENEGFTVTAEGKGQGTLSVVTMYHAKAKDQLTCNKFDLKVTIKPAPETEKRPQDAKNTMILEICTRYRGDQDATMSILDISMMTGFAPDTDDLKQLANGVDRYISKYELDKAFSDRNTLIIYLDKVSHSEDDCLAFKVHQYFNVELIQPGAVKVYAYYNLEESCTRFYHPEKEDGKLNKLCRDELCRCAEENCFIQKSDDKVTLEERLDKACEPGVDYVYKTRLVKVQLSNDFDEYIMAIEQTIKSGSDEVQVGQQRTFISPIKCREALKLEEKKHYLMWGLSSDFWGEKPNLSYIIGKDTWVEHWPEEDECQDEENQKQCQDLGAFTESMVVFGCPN
B1 showed an EC50 hC3 cleavage of 336 nM.
Turning to B2, the EC50 hC3 cleavage was determined as 6.75 nM.
Still for that read-out and setting: with B3 the figure was 13.2 nM.
Molecule B4 registered an EC50 of hC3 cleavage of 13.1 nM.
For the molecule B5, the EC50 hC3 cleavage was 19.1 nM.
In turn, B6 yielded an EC50 hC3 cleavage of 31 nM.
Regarding B7, the EC50 hC3 cleavage stood at 47.4 nM.
B8 returned an EC50 hC3 cleavage of 29.4 nM.

Source of the values: patent US20240018502A1.
